The test deals with Flag-tagged BPGAP1. The test can be described thus: co-immunoprecipitation (anti-Flag M2 beads) with immunoblot quantification. The following applies: HEK293T cell lysates; three independent experiments; parent: est. 1.0; read off a plot.

With “HA-tagged Rac1, wild-type (WT) (from UniProt P63000) T17N”, the ratio to parent came out at 2.2 fold change.

For the substance “HA-tagged Rac1, wild-type (WT) (from UniProt P63000) G12V”, the ratio to parent worked out at 0.72 fold change.

Source of the values: publication PMC10011724.
